One data set concerns rat eye. As to the kind of experiment: In vivo implant formation of ISPcI in rat eye following intravitreal injection. To be noted: day 1, day 6 and day 18. The procedure: 2 μl of ISPcI gel formulation was injected by intravitreal route in the rat eye, following by UV light exposure for 2 min, fundus images were collected to locate the implant formation and image model dye release within the eye. Likewise PPcI were administered by subconjunctival route and any surface inflammation monitored by experienced ophthalmologist

The nature of data set [1]: In vitro drug release from in situ photocrosslinked implants (ISPcI) in PBS.
Experimental: (§1) For drug release studies selected ISPcI gel formulation were injected (approx. 0.2 g or 0.1 g) into desired amount of PBS (pH 7.3±0.2). Sink conditions were maintained for each drug type. ISPcI were formed by exposing them immediately to 365 nm using bench-top UV light (at 3.1±0.1 mW/cm^2, CAMAG, Muttenz, Switzerland) for varying periods of time in PBS. The implants were stored in an incubator (37° C. and 60 rpm) for the duration of the release study. At predetermined time intervals the entire PBS medium was removed and replaced with equal amount of fresh PBS. All the experiments were carried out in triplicates. The concentration of released drug molecule in the PBS samples was analyzed as described below.
BSA, OVA and bevacizumab (Avastin) were assayed using a Pierce™ Micro BCA protein assay kit (Thermo Scientific, Hampton, UK). To a microwell, 150 μL of BSA, OVA or BVZ standard or release sample was pipetted and 150 μL of working reagent was added. A plate shaker ensured thorough mixing. The 96-well plate was covered and incubated for 2 hours at 37° C. Once the plate was allowed to return to room temperature, a UV plate reader measured the absorbance at 562 nm. The average absorbance reading of the blank was subtracted from those of the standards/samples.
A short description of data set [2]: In vitro drug release from preformed photocrosslinked implants (PPcI) in PBS. Conditions: PPcI 30% w/w PLGA 75/25 / PEGDA 700, 5 runs, lamp intensity 100%, after 266 days. The format is physicochemical.
Experimental: as §1
Analysis of DEX and TA samples were carried out using reversed-phase HPLC with UV detection (Agilent 1260 Infinity Quaternary System) using an Agilent Zorbax Eclipse Plus 250 mm C18 column (250 mm length, 4.6 mm internal diameter and 5 μm particle size) and an Agilent Zorbax guard column held at 25° C. […] Analysis required a mobile phase of 60% water and 40% acetonitrile with UV absorbance at 270 nm (for DEX) and 236 nm (for TA) at a flow rate of 1 ml/min and 0.8 ml/min respectively. Analysis of FITC-Dextran 150 kDa release was conducted using a fluorescence spectrophotometer. […] Fluorescence excitation occurred at 480 nm with emission measured at 520 nm. […]
Data set [3] is described as follows: ELISA test for bioactivity of OVA released from ISPcI. To be noted: released from ISPcI at 37±2° C., after 1 and 3 months. The procedure:
(Agilent Technologies UK Ltd, Stockport, UK). […] A plate shaker ensured thorough mixing.
Due to slow degradation rate of the crosslinked ISPcIs, the drastic drop in local pH is further delayed (unlike PLGA only implants) which is especially important and an advantage in protecting the sensitive molecules such as peptides and proteins. […] For example, an ELISA test was conducted to determine the bioactivity of released OVA from the ISPcI, at 37±2° C., after 1 and 3 months, respectively.
Background: An ELISA detects its analyte on a solid surface through an enzyme-linked reagent.

Take `O=C1OC2(c3ccc(O)cc3Oc3cc(O)ccc32)c2ccccc21` [fluorescein sodium]: the “release of fluorescein sodium from ISPcI implant in the eye (fundus images)” value with rat eye is “slow and continuous release”.

As to Bevacizumab [BVZ], the BVZ released is listed as roughly 100% in data set [1] (30% PLGA ISPcI implants UV crosslinked for 30 sec) and “approximately 41%” in data set [1] (30% PLGA ISPcI implants UV crosslinked for 2.5 min).

Turning to “Fluorescein isothiocyanate-dextran [FITC-Dextran 150 kDa]”, in data set [2], the “% release” value is roughly 27%.

B1: ovalbumin (protein, UniProt P01012 2-386, looked up)
Ovalbumin: GSIGAASMEFCFDVFKELKVHHANENIFYCPIAIMSALAMVYLGAKDSTRTQINKVVRFDKLPGFGDSIEAQCGTSVNVHSSLRDILNQITKPNDVYSFSLASRLYAEERYPILPEYLQCVKELYRGGLEPINFQTAADQARELINSWVESQTNGIIRNVLQPSSVDSQTAMVLVNAIVFKGLWEKAFKDEDTQAMPFRVTEQESKPVQMMYQIGLFRVASMASEKMKILELPFASGTMSMLVLLPDEVSGLEQLESIINFEKLTEWTSSNVMEERKIKVYLPRMKMEEKYNLTSVLMAMGITDVFSSSANLSGISSAESLKISQAVHAAHAEINEAGREVVGSAEAGVDAASVSEEFRADHPFLFCIKHIATNAVLFFGRCVSP
notes: model protein molecule, Mw of 45 kDa
For B1, the “OVA remained active (bioactivity of released OVA by ELISA)” value in data set [3] was roughly 97±2%.

For the origin of these results see patent US20230129084A1, “COMPOSITE IMPLANTS” (Re-Vana Therapeutics Ltd., priority 2015, published 2023).
